Data reported in PMC5065627, “LWD–TCP complex activates the morning gene CCA1 in Arabidopsis”.

Experiments:
[1] = target: GST-TCP22 (Arabidopsis thaliana, UniProt Q9C7G4 1-375); assay: competition; 20x/40x unlabelled mTBS against labelled TBS; 35 mM KCl, 15 mM HEPES pH 7.5, 0.4 mM EDTA, 6% glycerol, 50 ng/ul poly(dI-dC), 0.05 pmol probe, room temperature, 10 min; details: protein: recombinant; tags: GST (N-terminal, pET42a); chain copies: 2; blunt
[2] = target: GST-TCP20 (Arabidopsis thaliana, UniProt Q9LSD5 1-314); assay: as above; details: protein: recombinant; tags: GST (N-terminal, pET42a); chain copies: 2; blunt
Chain of GST-TCP20 (Q9LSD5 whole entry): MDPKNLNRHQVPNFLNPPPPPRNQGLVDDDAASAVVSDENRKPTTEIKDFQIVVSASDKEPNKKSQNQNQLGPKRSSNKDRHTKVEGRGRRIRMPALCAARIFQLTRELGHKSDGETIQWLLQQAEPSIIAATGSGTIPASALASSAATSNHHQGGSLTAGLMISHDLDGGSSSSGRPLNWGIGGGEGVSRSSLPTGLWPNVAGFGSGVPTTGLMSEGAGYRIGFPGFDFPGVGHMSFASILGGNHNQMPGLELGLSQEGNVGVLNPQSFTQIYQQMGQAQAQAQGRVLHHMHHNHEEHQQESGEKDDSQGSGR

Chain of GST-TCP22 (Q9C7G4 whole entry): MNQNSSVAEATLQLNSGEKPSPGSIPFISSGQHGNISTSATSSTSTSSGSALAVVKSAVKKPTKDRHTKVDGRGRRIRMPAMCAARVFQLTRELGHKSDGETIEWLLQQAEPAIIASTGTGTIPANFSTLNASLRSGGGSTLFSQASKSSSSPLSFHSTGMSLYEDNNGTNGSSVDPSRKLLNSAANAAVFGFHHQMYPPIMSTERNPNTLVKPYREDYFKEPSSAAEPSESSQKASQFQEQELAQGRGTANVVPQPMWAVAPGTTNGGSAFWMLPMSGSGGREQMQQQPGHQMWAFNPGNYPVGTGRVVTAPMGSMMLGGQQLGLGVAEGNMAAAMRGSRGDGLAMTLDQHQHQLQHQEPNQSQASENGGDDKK

B1: mTBS 50-bp CCA1 promoter competitor (dsDNA)
DNA 1: GAGATTAACGATCTTAAGTATTGAAACATAGATCAAGATATTATAACGAA
DNA 2: TTCGTTATAATATCTTGATCTATGTTTCAATACTTAAGATCGTTAATCTC
B1: no binding [1]; no binding [2].
